Patent publication US6673902B2, “Cyclin D binding factor, and uses thereof” (St. Jude Children's Research Hospital, priority 1996, dated 2004)

Experiments:
recombinant DMP1 = target: T1, recombinant DMP1 (Mus musculus, UniProt Q8CE22); assay: EMSA competition with Sf9 lysates producing recombinant DMP1; format: binding; settings: excess unlabeled oligonucleotide
T1 construct: made in house; host or cells: Sf9 insect cells, pAcYM1 baculovirus vector; used as crude lysate (~4 ng DMP1 per reaction)
T1 sequence (Q8CE22 1-761): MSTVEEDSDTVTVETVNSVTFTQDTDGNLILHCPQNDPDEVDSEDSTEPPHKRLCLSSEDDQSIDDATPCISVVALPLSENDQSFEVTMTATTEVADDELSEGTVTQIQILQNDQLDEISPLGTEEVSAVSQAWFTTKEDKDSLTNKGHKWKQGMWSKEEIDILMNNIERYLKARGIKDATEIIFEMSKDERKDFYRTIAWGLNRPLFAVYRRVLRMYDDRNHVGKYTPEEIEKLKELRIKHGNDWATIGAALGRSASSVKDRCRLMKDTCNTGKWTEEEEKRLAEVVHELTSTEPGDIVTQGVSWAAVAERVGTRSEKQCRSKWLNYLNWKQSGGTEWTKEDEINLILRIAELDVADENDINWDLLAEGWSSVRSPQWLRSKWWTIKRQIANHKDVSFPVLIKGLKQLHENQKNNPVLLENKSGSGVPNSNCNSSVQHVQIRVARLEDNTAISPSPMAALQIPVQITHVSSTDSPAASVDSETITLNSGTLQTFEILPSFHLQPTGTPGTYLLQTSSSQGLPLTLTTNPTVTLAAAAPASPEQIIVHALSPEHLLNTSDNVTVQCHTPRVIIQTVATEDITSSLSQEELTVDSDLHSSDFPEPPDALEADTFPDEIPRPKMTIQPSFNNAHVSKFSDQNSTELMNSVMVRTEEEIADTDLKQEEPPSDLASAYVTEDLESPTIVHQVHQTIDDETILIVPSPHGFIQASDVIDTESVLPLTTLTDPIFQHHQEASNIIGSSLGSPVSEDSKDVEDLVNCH
Method: (§1) Double-stranded oligonucleotides containing potential DMP1 binding sites (BS1 and BS2) and mutated versions (M1-M4) (FIG. 5B) are end-labeled with ^32P using the Klenow fragment of DNA polymerase and α-^32P-dATP (6000 Ci/mmol; Dupont NEN) (8). Nuclear extracts from mouse NIH-3T3 or CTLL cells are prepared with buffer containing 0.4 M NaCl (2). Mammalian cell extracts (15 μg protein) or Sf9 lysates (corresponding to 5×10^2 infected cells) containing ˜4 ng recombinant DMP1 are mixed with 3 ng of ^32P-labeled probe (1×10^5 cpm) in 15 ul Binding buffer containing 2.5 μg of poly(dI-dC) and 2.5 μg BSA and incubated at 4° C. for 30 minutes. For competition experiments, the indicated amounts of unlabeled oligonucleotides are added to the reactions before addition of the labeled probe. In some experiments, a bacterially produced GST-Ets2 fusion protein containing the complete Ets2 DNA-binding domain (10) is used in place of Sf9 extracts containing recombinant DMP1. Protein-DNA complexes are separated on nondenaturing 4% polyacrylamide gels as described (8). Where indicated, antiserum to DMP1 together with 2.5 μg salmon testis DNA (Sigma; used to reduce nonspecific DNA binding activity caused by serum addition) is preincubated with extracts for 30 minutes at 4° C. prior to initiation of binding reactions. Immune complexes are either removed by adsorption to protein A-Sepharose beads (immunodepletion experiments) or are allowed to remain (“supershift” experiments).
(§2) Using electrophoretic mobility shift assays (EMSA) performed after mixing a titrated excess (3 ng) of ^32P-end labeled BS1 probe with Sf9 lysates producing DMP1 (˜4 ng recombinant protein per reaction), a BS1-containing protein complex is detected that was competed with an excess of unlabeled BS1 oligonucleotide but not with mutant oligonucleotides M1 and M2 (FIG. 6A). […] More subtle mutations within this region may be tolerated, because high concentrations of M4 competed for BS1 binding to both Ets2 and DMP1 in subsequent studies (FIG. 5B and see below). DMP1 also binds a BS2 probe, and the binding is competed by excess BS2 or BS1 (FIG. 6B). In agreement with the site selection frequencies (FIG. 5A), binding of ^32P-BS1 under equivalent conditions was competed more efficiently by excess unlabeled BS1 than by BS2 (FIG. 6B). […] In agreement, Ets2 binding to BS1 could be competed with excess unlabeled BS1 and M3, but not by BS2 (FIG. 6C). Therefore, although both DMP1 and Ets2 can each bind to BS1 sequences, their exclusive interactions with BS2 and M3, respectively, help to distinguish DMP1 and Ets binding activities (summarized in FIG. 5B).

GST-Ets2 fusion protein = target: T2, GST-Ets2 fusion protein (Homo sapiens, UniProt P15036); assay: EMSA competition with bacterial GST-Ets2 fusion protein; format: binding; settings: excess unlabeled oligonucleotide
T2 construct: made in house; host or cells: bacteria
T2 sequence (P15036 363-443 limits assumed): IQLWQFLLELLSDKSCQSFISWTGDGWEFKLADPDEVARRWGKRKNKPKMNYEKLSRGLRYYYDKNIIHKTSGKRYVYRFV
Method: as §1, §2

competition for 32P-BS1 probe binding to DMP1 (recombinant DMP1): does not compete
competition for BS2 probe binding to DMP1 (recombinant DMP1): does not compete
competition for BS1 binding to Ets2 (GST-Ets2 fusion protein): competed
Substance: M3: DMP1 deletion mutant (NcoI), amino acids 1-458 of SEQ ID NO:1
